The target of this test is T1, His-FtsZ fusion protein (Streptococcus suis SC19, UniProt A0A0H3MXZ7 1-409).
T1 sequence (looked up): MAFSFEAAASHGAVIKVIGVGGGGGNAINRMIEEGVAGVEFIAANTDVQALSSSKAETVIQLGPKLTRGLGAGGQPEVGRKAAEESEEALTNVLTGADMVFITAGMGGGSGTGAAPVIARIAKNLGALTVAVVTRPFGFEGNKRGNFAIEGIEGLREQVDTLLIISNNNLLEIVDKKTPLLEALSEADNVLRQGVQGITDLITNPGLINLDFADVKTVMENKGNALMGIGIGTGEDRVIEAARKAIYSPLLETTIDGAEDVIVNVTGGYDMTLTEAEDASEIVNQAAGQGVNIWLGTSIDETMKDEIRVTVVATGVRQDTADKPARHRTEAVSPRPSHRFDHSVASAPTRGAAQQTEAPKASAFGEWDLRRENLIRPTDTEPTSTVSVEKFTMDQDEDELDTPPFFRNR
Put plainly: BLI.

B1: SepF labeled with biotin (natural protein, Streptococcus suis SC19, UniProt A4VTL1 1-187, looked up)
chain: MALKDTFKNLFNYFEVDEVNEVEEQADAYSMPNDRPKMRVANTTVAPVREQQPKVETRREARSESQLQRLHERQQELMTNNNEKEIVKTTIDIKFPKRYEDAPEMVNLLLDNASILIDFQYMSEQQARRCLDYLDGARSVLSGNLKKVSNTMWLLTPVNVTVNIEELRNAGTTTGVADSNFEFDIKR
modifications: biotin (biotin labeling kit; sites not stated)
Usually Kd stands for the equilibrium constant for the complex coming apart. A lower Kd goes with higher affinity. Molecule B1 had a Kd of 0.67 nM.

(Values after PMC11956251 (BMC Microbiology, 2025).)
